Legend:
[1] = target: T1, recombinant human tau, longest isoform hTau40 (441 aa) (human, UniProt P10636-8 1-441); assay: SPR (Biacore), tau immobilised on CM-5 chip, antibody injected 0.78-400 nM
T1 construct: range 1-441
Method: To characterize the binding affinity of the HJ8 and HJ9 series antibodies to mouse tau and human tau, Biacore's SPR technology was used. Biacore sensor chip CM-5 (Carboxymethylated dextran matrix) was activated by using EDC (1-ethyl-3-(3-dimethylaminopropyl)-carbodiimid) and NHS (N-hydroxysuccinimide) in 1:1 ratio. 2). Then ligand, either mouse tau or human Tau, were immobilized (20 ug/ml, in 10 mM sodium acetate pH 3.5) on Biacore CM-5 sensor chip at a flow rate of 5 μI/min. The remaining unbound area on the Biacore CM-5 sensor chip was deactivated by passage of 1 M ethanolamine pH 8.5.
Following preparation of the sensor chip surface, analytes (e.g. antibody) were injected with different concentrations (0.78 nM-400 nM) in filtered, degassed 0.01 M Hepes buffer, 0.15 M NaCl, 0.005% surfactant P20, pH 7.4 at a flow rate of 10 μI/min. All the samples were run in duplicates. After each cycle/run with single antibody concentration, the surface of the chip was regenerated by using 10 mM glycine pH 1.7, to remove the bound antibody/analyte, leaving the monomer/fibrils/ligand attached to the surface.

[2] = target: T2, endogenous murine tau (mouse brain and ISF) (mouse, UniProt P10637-2 1-430, limits assumed); assay: immunoblot of RAB soluble brain fractions of KO, WT and P301S mice
T2 construct: Mixture of isoforms from tissue; also called mouse tau (Western blot, immunostaining, ISF immunoprecipitation)
T2 sequence (P10637 other isoform, or with tags, fused parts or gaps limits assumed): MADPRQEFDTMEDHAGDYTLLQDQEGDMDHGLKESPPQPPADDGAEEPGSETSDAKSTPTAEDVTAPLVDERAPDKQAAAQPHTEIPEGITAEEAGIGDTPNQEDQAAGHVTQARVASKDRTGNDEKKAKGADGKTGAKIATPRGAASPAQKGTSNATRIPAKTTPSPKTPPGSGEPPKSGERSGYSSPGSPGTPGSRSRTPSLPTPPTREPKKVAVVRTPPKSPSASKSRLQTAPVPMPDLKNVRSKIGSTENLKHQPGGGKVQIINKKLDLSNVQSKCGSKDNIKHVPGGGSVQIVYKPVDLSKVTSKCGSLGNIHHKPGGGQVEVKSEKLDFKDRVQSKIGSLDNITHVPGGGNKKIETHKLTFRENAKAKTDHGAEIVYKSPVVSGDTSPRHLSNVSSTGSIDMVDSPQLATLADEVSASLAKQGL

[3] = target: recombinant mouse tau, longest isoform mTau40 (432 aa) (mouse, UniProt P10637-2 1-430, limits assumed); assay: SPR (Biacore), mouse tau immobilised, antibody injected
recombinant mouse tau, longest isoform mTau40 (432 aa), sequence (P10637 other isoform, or with tags, fused parts or gaps limits assumed): as above
Method: FIGS. 30A, 30B, 30C, 30D, 30E, 30F and 30G. Characterization of anti-tau antibodies by surface plasmon resonance (SPR) and Immunoblotting. The figure depicts SPR sensorgrams showing the binding of each anti-tau antibody towards immobilized recombinant human tau (longest isoforms hTau40, 441 aa) and immobilized mouse tau (longest isoforms mTau40, 432 aa). Each antibody was run with various concentrations (0.11, 0.23, 0.46, 0.90, […], 3.7, 7.5 μg/ml) and plots are shown in the corresponding color. (FIG. 30A) SPR sensorgrams of HJ9.3 antibody binding to immobilized human tau and immobilized mouse tau (FIG. 30B). (FIG. 30C) SPR sensorgrams of HJ9.4 antibody binding to immobilized human tau and immobilized mouse tau (FIG. 30D). SPR sensorgrams of HJ8.5 antibody binding to immobilized (FIG. 30E) human and (FIG. 30F) mouse tau. (FIG. 30G) RAB soluble fractions of 3 month old tau knockout (KO), 3 month old wild-type (WT), 3 month old P301 S (3 mo) and 9 month old P301 S (9 mo) mice were analyzed by immunoblot by using the indicated anti-tau antibodies.
Surface plasmon resonance Surface plasmon resonance experiments were performed on BIAcore 2000 surface plasmon resonance instrument (GE Healthcare-BIAcore). Biacore sensor chip CM-5 was activated by using EDC (1-ethyl-3-(3-dimethylaminopropyl)-carbodiimide) and NHS (N-hydroxysuccinimide) in a 1:1 ratio for 7 minutes. […]

[4] = target: T1, recombinant human tau, longest isoform …; assay: SPR (BIAcore 2000), tau immobilised on CM-5 chip, antibody injected 0.11-7.5 µg/ml, 1:1 Langmuir global fit
Method: Prior to testing in vivo, the binding affinities and epitopes of the antibodies, which are all lgG2b isotype, were determined. Human and mouse tau was immobilized on a sensor chip CMS for surface plasmon resonance (SPR) (FIGS. 30A-30G). […] The association (Kₐ) and dissociation (Kd) was calculated by using BIAevaluation software (Biacore AB) selecting Fit kinetics simultaneous Kd/Kₐ (Global fitting) with 1:1 (Langmuir) interaction model. […] The epitope of HJ9.3 was mapped to the repeat domain (RD) region, between amino acids 306-320. […] It binds to human tau (FIG. 30E) but not to mouse tau (FIG. 30F). […] The epitope of HJ8.5 was mapped to amino acids 25-30. All 3 anti-tau antibodies strongly recognized human tau fibrils on SPR (FIG. 31). Because the fibrils have multiple identical epitopes, the association and dissociation rates could not be directly calculate.
Surface plasmon resonance Surface plasmon resonance experiments were performed on BIAcore 2000 surface plasmon resonance instrument (GE Healthcare-BIAcore). Biacore sensor chip CM-5 was activated by using EDC (1-ethyl-3-(3-dimethylaminopropyl)-carbodiimide) and NHS (N-hydroxysuccinimide) in a 1:1 ratio for 7 minutes.

T1 sequence (P10636 other isoform, or with tags, fused parts or gaps limits assumed): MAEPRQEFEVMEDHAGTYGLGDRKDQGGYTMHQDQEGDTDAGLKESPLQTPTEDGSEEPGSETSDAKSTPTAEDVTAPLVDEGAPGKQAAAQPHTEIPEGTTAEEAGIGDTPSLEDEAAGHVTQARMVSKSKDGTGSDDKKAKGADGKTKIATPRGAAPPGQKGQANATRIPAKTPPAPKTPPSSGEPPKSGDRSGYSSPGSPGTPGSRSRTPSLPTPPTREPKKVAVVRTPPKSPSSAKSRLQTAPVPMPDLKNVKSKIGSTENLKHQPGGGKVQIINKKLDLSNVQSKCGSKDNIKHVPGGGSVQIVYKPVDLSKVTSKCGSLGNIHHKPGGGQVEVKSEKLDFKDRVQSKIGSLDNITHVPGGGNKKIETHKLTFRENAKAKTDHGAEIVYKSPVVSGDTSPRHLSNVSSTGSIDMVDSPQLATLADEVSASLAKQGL

Kd [1]: 0.336 pM | koff [1]: 4.34e-08 s⁻¹ | kon [1]: 130000 M⁻¹ s⁻¹ | binding result [2]: no binding | binding result [3]: no binding (tested: 7.5 µg/ml) | Kd [4]: 0.336 pM | koff [4]: 4.34e-08 s⁻¹ | kon [4]: 130000 M⁻¹ s⁻¹
B1: HJ8.5 (antibody, V domains shown)
VH: EVKVEESGGGLVQPGGSMKLSCVVSGFTFSNYWVNWVRQSPEKGLEWVAQIRLKSDNYATHYEESVKGRFTISRDDSKSSVYLQMNNLRAEDSGIYYCTNWEDYWGQGTTLTVSS
VL: DIVLTQSPASLAVSLGQRATISCRASQSVSTSRYSYIHWYQQKPGQPPKLLIKYASNLESGVPARFSGSGSGTDFTLNIHPLEEEDAATYYCHHSWEIPLTFGAGTKLELK
notes: also called HJ8.5B (biotinylated)

— patent publication US20180037641A1 (WASHINGTON UNIVERSITY, published 2018)
